According to article PMC3428855:

Target: GST coupled TRPM8 N terminal fragment (1~691) (UniProt Q7Z2W7)
Assay: pull-down

Chain of UniProt Q7Z2W7 (Q7Z2W7 1-691): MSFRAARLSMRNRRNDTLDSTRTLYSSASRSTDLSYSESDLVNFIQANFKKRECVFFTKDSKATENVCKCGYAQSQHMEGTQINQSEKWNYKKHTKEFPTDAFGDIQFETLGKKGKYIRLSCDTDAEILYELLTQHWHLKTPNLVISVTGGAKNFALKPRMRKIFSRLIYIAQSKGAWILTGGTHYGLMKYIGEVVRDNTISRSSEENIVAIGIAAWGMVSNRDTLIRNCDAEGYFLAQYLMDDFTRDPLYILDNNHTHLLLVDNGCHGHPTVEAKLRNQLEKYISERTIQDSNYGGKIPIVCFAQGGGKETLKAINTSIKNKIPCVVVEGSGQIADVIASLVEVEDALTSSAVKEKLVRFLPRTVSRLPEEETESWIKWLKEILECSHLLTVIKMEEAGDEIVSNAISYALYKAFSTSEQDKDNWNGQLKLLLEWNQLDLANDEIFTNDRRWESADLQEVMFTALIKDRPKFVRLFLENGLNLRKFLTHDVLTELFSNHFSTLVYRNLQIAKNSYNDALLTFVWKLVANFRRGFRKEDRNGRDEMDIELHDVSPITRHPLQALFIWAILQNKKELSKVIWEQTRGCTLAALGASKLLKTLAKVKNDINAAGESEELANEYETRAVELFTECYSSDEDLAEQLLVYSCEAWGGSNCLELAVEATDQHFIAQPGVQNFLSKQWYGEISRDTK

- fold Gαq bound relative to TRPM8 C terminal: 1.28 fold
Substance: Gαq (wild type) (from UniProt P50148 1-359) (natural protein)
